Laboratory results taken from patent publication US20200277373A1 (DENALI THERAPEUTICS, published 2020).
Changes are numbered by the printed parent chain.

B1: RS9.F6 (antibody, V domains shown)
VH: QVQLQQPGAELVKPGASVKLSCKASGYTFTSYWMHWVKQSPGRGLEWIGRSDPTTGGTNYNEKFKTKATLTVDKPSSTAYMQLSSLTSDDSAVYYCVRTSGTGDYWGQGTSLTVSS
VL: DVVMTQTPLSLPVSLGDQASISCRSSQSLVHNNGNTFLHWYLQKPGQSPKLLIYKVSNRFSGVPDRFSGSGSGTDFTLKISRVEAEDLGVYFCSQTTHVPPTFGGGTKLEIK
B2: RS9.F10 (antibody, V domains shown)
VH: B1 VH
VL: B1 VL
notes: same entries as RS9.F6; also called RS.F10
B3: RS9.F6/3C.35.21.17 (bispecific antibody, human IgG1, L234A L235A)
heavy 1: QVQLQQPGAELVKPGASVKLSCKASGYTFTSYWMHWVKQSPGRGLEWIGRSDPTTGGTNYNEKFKTKATLTVDKPSSTAYMQLSSLTSDDSAVYYCVRTSGTGDYWGQGTSLTVSSASTKGPSVFPLAPSSKSTSGGTAALGCLVKDYFPEPVTVSWNSGALTSGVHTFPAVLQSSGLYSLSSVVTVPSSSLGTQTYICNVNHKPSNTKVDKKVEPKSCDKTHTCPPCPAPEAAGGPSVFLFPPKPKDTLMISRTPEVTCVVVDVSHEDPEVKFNWYVDGVEVHNAKTKPREEQYNSTYRVVSVLTVLHQDWLNGKEYKCKVSNKALGAPIEKTISKAKGQPREPQVYTLPPSRDELTKNQVSLWCLVKGFYPSDIAVLWESYGTEWASYKTTPPVLDSDGSFFLYSKLTVTKEEWQQGFVFSCSVMHEALHNHYTQKSLSLSPGK
heavy 2: QVQLQQPGAELVKPGASVKLSCKASGYTFTSYWMHWVKQSPGRGLEWIGRSDPTTGGTNYNEKFKTKATLTVDKPSSTAYMQLSSLTSDDSAVYYCVRTSGTGDYWGQGTSLTVSSASTKGPSVFPLAPSSKSTSGGTAALGCLVKDYFPEPVTVSWNSGALTSGVHTFPAVLQSSGLYSLSSVVTVPSSSLGTQTYICNVNHKPSNTKVDKKVEPKSCDKTHTCPPCPAPEAAGGPSVFLFPPKPKDTLMISRTPEVTCVVVDVSHEDPEVKFNWYVDGVEVHNAKTKPREEQYNSTYRVVSVLTVLHQDWLNGKEYKCKVSNKALGAPIEKTISKAKGQPREPQVYTLPPSRDELTKNQVSLSCAVKGFYPSDIAVEWESNGQPENNYKTTPPVLDSDGSFFLVSKLTVDKSRWQQGNVFSCSVMHEALHNHYTQKSLSLSPGK
light: B1 VL
notes: second: RS9.F6 Fd on Fc with LALAPG and hole mutations; Vectors co-transfected 1:1:2; also called RS9.F6/3C35.21.17_LALAPG; ATV-Anti-TREM2
B4: F6 Fab (Fab fragment of anti-TREM2 antibody RS9.F6) (Fab, V domains shown)
VH: B1 VH
VL: B1 VL
notes: Fab expressed in Expi-293 cells; also called TREM2 Fab
B5: 24B4.A1 (antibody, V domains shown)
VH: QVHLQQSGSELRSPGSSVKLSCKDFDSEVFPISYMSWIRQKPGHGFEWIGDILPSIGGRIYGVKFEDRATLDADTVSNTAYLELNSLTSEDSAIYYCARKDYGSLAYWGQGTLVTVSA
VL: B1 VL with N32I, F37Y, H39Q, Y41F, D75A, T96S, P101Y
notes: Mouse hybridoma antibody, Ig2a, k; same entries as 26E2.A3; also called RS8.24B4.A1
B6: 49H11.B1 (antibody, IgG3, V domains shown)
VH: DVQLQESGPGLVKPSQSLSLTCTVTGYSITSDYAWNWIRQFPGNRLEWMGYISFSGSTSYNPSLKSRISITRDTSKNQFFLQLNSVTTEDTATYYCARWNGNYGFAYWGQGTLVTVSA
VL: B1 VL with N32I, F37Y, T96S, P100T, P101F, G105S
notes: Mouse hybridoma antibody, IgG3, k; also called RS8.49H11.B1
B7: 54C2.A1 (antibody, V domains shown)
VH: B5 VH with S33A, I38V, G58R, R68K, A98T
VL: B1 VL with N32I, F37Y, H39Q, K79R, T96S, V99L, P101Y
notes: Mouse hybridoma antibody, Ig2b, k; also called RS8.54C2.A1

Key:
[1] = biological target: T1, Human TREM2 protein, on cells (human, UniProt Q9NZC2 19-230); test: flow cytometry titration on hTREM2-HEK cells
T1 construct: Wild type human TREM2 expressed with DAP12 on HEK293 cells (clone H6), or endogenous on primary human monocyte-derived macrophages; also called hTREM2-HEK; HEK293-H6
T1 sequence: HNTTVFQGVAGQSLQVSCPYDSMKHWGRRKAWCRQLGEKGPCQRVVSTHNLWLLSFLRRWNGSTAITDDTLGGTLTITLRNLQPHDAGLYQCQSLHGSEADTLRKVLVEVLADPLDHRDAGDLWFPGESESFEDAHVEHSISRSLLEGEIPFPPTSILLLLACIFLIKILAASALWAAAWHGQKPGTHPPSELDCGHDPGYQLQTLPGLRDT
Text: (§1) FIGS. 1A-1D. […] (A) Anti-TREM2 antibodies were screened for binding to HEK cells expressing human TREM2 (unlabeled) and mouse TREM2 HEK expressing cells (labeled with NucBlue). Antibody binding was detected with a secondary anti-mouse multiple adsorption antibody conjugated to APC. […] (B) Parental HEK-GFP cells were used as a negative control to rule out non-specific binding. (C) Anti-TREM2 antibody surface binding dose response in hTREM2-HEK cells. Anti-TREM2 antibodies were titrated for binding to HEK cells expressing human TREM2. Antibody binding was detected with a secondary anti-mouse multiple adsorption antibody conjugated to APC. […] Mouse TREM2 HEK cells were titrated for binding as in (C).
(§2) After labeling, cells were washed twice with 1×PBS. […] Mixed cell lines were seeded at 300,000 cells per well in a 96-well round-bottom and incubated 20 minutes at room temperature. After incubation, cells were centrifuged and test anti-TREM2 antibodies were added, then incubated for 45 minutes on ice. After incubation, cells were centrifuged and washed with FACS buffer three times.

[2] = biological target: T1, Human TREM2 protein, on cells; test: cell binding, human TREM2-expressing HEK cells, flow cytometry titration
[3] = biological target: T1, Human TREM2 protein, on cells; test: cell-based or functional assay
Mouse TREM2, on cells [4] = biological target: T2, Mouse TREM2, on cells (mouse, UniProt Q99NH8 19-227); test: flow cytometry, 293F cells overexpressing mouse TREM2
T2 construct: whole, on cells; also called mouse TREM2 HEK
T2 sequence (looked up): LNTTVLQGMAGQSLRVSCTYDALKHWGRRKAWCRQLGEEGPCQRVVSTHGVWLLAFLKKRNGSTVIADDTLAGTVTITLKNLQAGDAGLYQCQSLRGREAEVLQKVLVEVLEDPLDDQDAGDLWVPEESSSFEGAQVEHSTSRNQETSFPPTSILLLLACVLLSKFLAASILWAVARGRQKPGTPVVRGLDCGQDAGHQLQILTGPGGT
Description: as §2
(§3) The data in Table 2 is presented as fold over binding (FOB).

[5] = biological target: T1, Human TREM2 protein, on cells; test: cell-based or functional assay; remark: listed apart in the source
[6] = biological target: T3, His-tagged TREM2 ECD (ecto domain residues 19-172 of human TREM2, C-terminal 6X-His tag) (human, UniProt Q9NZC2 19-172); test: Table 1 Kd; Biacore, TREM2-His analyte (presumed)
T3 construct: Made in Expi293F cells; the mouse Ig kappa secretion signal is not part of the mature protein; Biotinylated for the Octet binning; also called TREM2-His; TREM2-His protein
T3 sequence: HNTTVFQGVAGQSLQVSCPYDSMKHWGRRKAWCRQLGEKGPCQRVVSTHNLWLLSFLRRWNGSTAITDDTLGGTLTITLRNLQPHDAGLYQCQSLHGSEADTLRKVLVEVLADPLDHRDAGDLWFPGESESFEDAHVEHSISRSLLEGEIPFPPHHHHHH
Description: Anti-murine Fc antibody (obtained from GE Healthcare) was immobilized on the surface of a CM5 chip (obtained from GE Healthcare) through amine-coupling to reach about 6,000 to 8,000 response units (RU). The surface was activated by injection of a mixture of 1-ethyl-3-(3-dimethylaminopropyl)-carbodiimide (EDC) and N-hydroxysuccinimide (NHS), both obtained from GE Healthcare, for 7 minutes. Anti-murine Fc antibody was diluted in sodium acetate (pH 5.0) at 25 μg/mL and injected for 10 minutes at a flow rate of 5 μL/minute, followed by injection of ethanolamine (obtained from GE Healthcare) for 7 minutes.
Purified anti-TREM2 hybridoma (20 μg/mL) was captured to reach 1000-1500 RU. A range of serially-diluted TREM2-His protein (e.g., 3.4 nM to 300 nM) was injected at a flow rate of 30 μL/minute, using either single-cycle kinetics methods. Sensorgrams were fitted using a 1:1 Langmuir model to estimate kₒₙ and koff.

[7] = biological target: T1, Human TREM2 protein, on cells; test: flow cytometry, HEK293 cells overexpressing human TREM2
Description: as §2, §3

[8] = biological target: T3, His-tagged TREM2 ECD (ecto domain …); test: Biacore T200, antibody captured, antigen injected, 1:1 model
Description: (§4) To measure TfR binding, anti-human-Fab was immobilized on a CM5 chip, and the TREM2/TfR-binding protein was captured. Full-length human TfR or human TfR apical domain at serial dilution (e.g., concentrations of 1-1000 nM) was flowed over the chip (180 second association time) and then allowed to dissociate. Fitting was performed using a 1:1 binding model. To measure TREM2 binding, anti-human-Fc antibody was immobilized on a CM5 chip, and the TREM2/TfR-binding protein was captured. A range of concentrations of recombinant TREM2-His protein were flowed over the chip, and allowed to associate and dissociate. The resulting sensograms were fitted using a 1:1 Langmuir model to estimate kₒₙ and koff (FIG. 10).
(§5) Biacore Series S CM5 sensor chips were immobilized with a mixture of two monoclonal mouse anti-Fab antibodies (Human Fab capture kit from GE Healthcare). Serial 3-fold dilutions of each antigen were injected at a flow rate of 30 μL/min. The binding of the antigens to captured antibody was monitored for 30 to 180 seconds and then their dissociation was monitored for 30-300 seconds in HBS-EP+running buffer (GE, # BR100669). Binding response was corrected by subtracting the RU from a blank flow cell. A 1:1 Languir model of simultaneous fitting of kₒₙ and koff was used for kinetics analysis.

Mouse TREM2, on cells [9] = biological target: T2, Mouse TREM2, on cells; test: flow cytometry titration on mTREM2-293F cells
Text: as §1, §2

[10] = biological target: T4, Human transferrin receptor apical domain (human, UniProt P02786 198-378, limits assumed); test: Biacore T200, antibody captured, antigen injected, 1:1 model
T4 construct: also called hTfR apical domain; TfR apical domain
T4 sequence (P02786 198-378 limits assumed): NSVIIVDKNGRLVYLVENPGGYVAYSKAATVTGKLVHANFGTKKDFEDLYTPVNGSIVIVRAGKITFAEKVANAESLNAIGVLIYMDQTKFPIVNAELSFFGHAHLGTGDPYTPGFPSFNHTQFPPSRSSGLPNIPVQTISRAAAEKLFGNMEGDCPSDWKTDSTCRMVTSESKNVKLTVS
Description: as §4, §5

[11] = biological target: T5, Human TREM2 synthetic 9-mer peptide DLWFPGESE (human); test: X-ray co-crystal structure
T5 construct: also called TREM2 peptide; TREM2 9-mer peptide
T5 peptide: DLWFPGESE
Text: The synthetic 9-mer peptide […] (SEQ ID NO:335), corresponding to amino acid residues 140-148 of human TREM2 (according to UniProtKB entry TREM2_HUMAN) was used for co-crystallization.

Mouse TREM2, on cells [12] = biological target: T2, Mouse TREM2, on cells; test: Table 5, cell binding: Mouse TREM2 HEK

Binder	EC50 [1]	EC50 [2]	pSyk FOB (30 nM Ab) [3]	FOB (fold over binding) (Mouse TREM2, on cells [4])	STREM2 decrease (nM), EC50 [5]	pSyk (nM), EC50 [5]	Kd [6]	FOB (fold over binding) [7]	Kd [8]	koff [8]	kon [8]	EC50 (Mouse TREM2, on cells [9])	Kd [10]	koff [10]	kon [10]	binding result [11]	binding result (Mouse TREM2, on cells [12])
B1	< 2 nM	1.62 nM	8.49 fold over background	73 fold	0.3 nM	15.9 nM	0.733 nM	13.2 fold	2.3 nM	0.00034 s⁻¹	150000 M⁻¹ s⁻¹	< 8 nM	–	–	–	–	–
B2	< 2 nM	1.54 nM	9.89 fold over background	75.8 fold	–	20.5 nM	0.852 nM	12.9 fold	–	–	–	< 8 nM	–	–	–	–	–
B3	–	–	–	–	–	–	–	–	2.6 nM	0.00038 s⁻¹	150000 M⁻¹ s⁻¹	–	110 nM	0.19 s⁻¹	1.7e+06 M⁻¹ s⁻¹	–	–
B4	–	–	–	–	–	–	–	–	–	–	–	–	–	–	–	binds	–
B5	–	7.5 nM	17.3 fold over background	1.5 fold	–	49.8 nM	12.4 nM	8.6 fold	–	–	–	–	–	–	–	–	no binding
B6	–	–	11.6 fold over background	1.2 fold	–	26.5 nM	63.4 nM	7 fold	–	–	–	–	–	–	–	–	no binding
B7	–	4.09 nM	6.56 fold over background	1.7 fold	–	456 nM	2.19 nM	12.8 fold	–	–	–	–	–	–	–	–	no binding
